Values quoted from earlier work, collected in publication PMC4404502.

Target: Asp11 (position 11, …)
Assay: fluorescence
Conditions: membrane-inserted helix

KKGLLLLLLLDLWLLLLLLLLLKKA [pL(D11) poly-Leu transmembrane model peptide (synthetic construct)]
pKa: 8.7
